The chains are these.
B1: TPR t1 (parent)
chain: GACCAAUCUGCCCUCAGAGCUCGAGAACAUCUUCGGAUGCAGAGGAGGCAGGCUUCGGUGGCGCGAUAGCGCCAACGUCCUCAACCUCCAAUGCAUCCCACCACAUGAUGAUGCCUGAAGAGCCUUGGUUUUUUG

In this series the parent is B1. The series is described as follows: polymerase ribozyme fitness, log enrichment relative to wild type (log ratio); higher = more active; in vitro selection for triplet polymerase activity. A digest of the protocol: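 Mutant libraries for each subunit of a heterodimeric triplet polymerase ribozyme were made by PCR and then transcribed. Each library underwent one round of in vitro selection in triplicate: annealing with a biotinylated primer, the partner subunit and triplets, frozen incubation at −7 °C, gel excision of extended constructs, streptavidin-bead capture and RT-PCR. Input and output libraries were Illumina-sequenced, and only genotypes with ≥10 input reads and ≥1 read per output were kept. Fitness is the logarithm, base 2, of genotype enrichment over wild-type enrichment, computed from inverse-variance-weighted replicate averages.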
As to G120A G127U, the “polymerase ribozyme fitness (log ratio)” value was 0.172.
In the case of G120A G127A it was -0.68; in that of A111G U116G C124A U131G, -1.23.
The value for A121C U131G was 1.12.
The value for G120C G122A was -0.824; that for G122A U130C was -0.597; that for G122A U130G was -1.01.
On to C114G C124A G135A, for which the “polymerase ribozyme fitness (log ratio)” value is -0.373.
The value for C114A U133G was -1.84.
As for U109A C115G, the “polymerase ribozyme fitness (log ratio)” value was -7.19.
In the case of A119U it was -0.349.
In the case of A119G it was 1.12; in that of A119C, -4.38; in that of U112A C123U, 1.03.
The value for U112A C123G was 0.872; that for A121U C124A was 2.1; that for C114U C123A was -1.94.
With U112G C123U, the “polymerase ribozyme fitness (log ratio)” value turned out to be 0.561.
In the case of U112G C123G it was 0.429; in that of G117C U125A G135C, -4.9.
In the case of C115U G122U it was -1.31; in that of A121U G135U, 1.28.
In the case of G120C G127U it was 2.11; in that of G122U C124G, -0.864; in that of G122U C124A, 1.69.
Consider G113A G120C, for which the “polymerase ribozyme fitness (log ratio)” value was -1.02.
In the case of C114A A119G it was 0.218; in that of G117A C124U, -0.187.
For G110U G120C G127A G128U, the “polymerase ribozyme fitness (log ratio)” value was -4.38.
In the case of U112A C124U it was 1.1; in that of G120C U130G, 0.395.
The value for C114G G128A U130A was -5.53.
The value for G117U G120A U132A was -1.33; that for G113C C124G was -1.33.
Turning to C115U G120A U131A, the “polymerase ribozyme fitness (log ratio)” value is -2.07.
In the case of C115U A118C it was -2.16.
On to G117A G135U, for which the “polymerase ribozyme fitness (log ratio)” value was -1.92.
For G117A G135C, the “polymerase ribozyme fitness (log ratio)” value was -1.41.
The value for G110U C115A U129C was -3.17.
The value for G110U G120A was -2.47.
As for U109A U116G, the “polymerase ribozyme fitness (log ratio)” value was -5.73.
In the case of C114A C123U G128U it was -4.41; in that of G110C U112G, -4.99.
For G110A U129C, the “polymerase ribozyme fitness (log ratio)” value was -1.47.
The value for U112A G113U was -0.351; that for G113U G117A was -5.13; that for C114G U126G was -4.32.
The value for G117C A118C was -3.06; that for G117C A118G was -3.04; that for G117U A118U was -2.66.
The value for A111C U112A C123G was -0.191; that for G122A U126A was -2.34; that for G110A U116G was -3.5.
On to C114U A121U, for which the “polymerase ribozyme fitness (log ratio)” value is -1.32.
In the case of G120A G122A G128C it was -2.03; in that of G113C G135U, -4.15; in that of G110U G117U, -4.2.
The value for G110U G117A was -2.69; that for A121G U131G was 1.36; that for A121G U131A was 2.42.
The value for C114G G120U was -3.34; that for U109A G117U was -5.72.
G113A G128U: the “polymerase ribozyme fitness (log ratio)” value was -2.37.
On to G113U C124U, for which the “polymerase ribozyme fitness (log ratio)” value is -2.48.
Consider G120U U130G, for which the “polymerase ribozyme fitness (log ratio)” value was -0.763.
Take G120U U130A: the “polymerase ribozyme fitness (log ratio)” value was -0.3.
The value for G120U U129C was -0.774; that for U109A U134G was -5.32; that for C114A G127U was -3.82.
The value for C115G G117C was -5.84; that for U112A U133A was 1.53; that for U112A U133G was 1.43.
The value for A111C C115A was -3.19; that for G120A U125A U126A G128A was 0.067; that for U109A C114U A121C was -4.32.
In the case of G113A C114G, the “polymerase ribozyme fitness (log ratio)” value is -1.96.
On to A111U U116C, for which the “polymerase ribozyme fitness (log ratio)” value is -4.01.
In the case of G120A U129A it was -0.0881; in that of U116G G120C U129A, -2.49.
The value for G113A C124G was -0.302; that for G113A C124U was -0.971; that for G113A C124A was -1.44.
In the case of G113A U125A it was -1.24; in that of G113C C115A, -4.21.
On to C114G U130G U133A, for which the “polymerase ribozyme fitness (log ratio)” value was -2.19.
In the case of U109C C124A it was -1.7; in that of G110C U132A, -3.46; in that of U112G G122A, -1.74.
The value for G110C G127U was -2.52; that for G120C G135C was 1.48; that for U112A A119C was -1.25.
For the variant A119U G120U, the “polymerase ribozyme fitness (log ratio)” value is -0.548.
In the case of A119U G120C it was 1.55; in that of U109C A121G C124A G127C, -3.66; in that of G113U G127U, -4.46.
The value for G113U G127C was -1.61; that for G117C C124U was -3.55.
Turning to A119U G128C, the “polymerase ribozyme fitness (log ratio)” value was -2.46.
Consider A121C G128U, for which the “polymerase ribozyme fitness (log ratio)” value was found to be 0.545.
For U112C U125A, the “polymerase ribozyme fitness (log ratio)” value worked out at 1.63.
The value for C114A G117U C124U was -6.08; that for U116A C123U was -1.63; that for U109C U126A was -4.99.
In the case of U112G U130C it was 0.265; in that of C115G A119G, 1.52.
For the variant C115U U125A, the “polymerase ribozyme fitness (log ratio)” value was -0.551.
The value for G113C C123A was -2.82; that for A121G U129C was 0.0991.
In the case of G113U G122C, the “polymerase ribozyme fitness (log ratio)” value is -2.73.
In the case of G113U G120C G128U it was -4.07; in that of G117C U133A, -4.07.
In the case of G117C U133G it was -3.89; in that of U112C G128U, -0.242.
The value for U112A C115G was -0.927; that for G110A U125A was -2.43; that for A111C A121C was -0.386.
With A111U G120A, the “polymerase ribozyme fitness (log ratio)” value is -3.85.
The value for A111U G120U was -4.5.
Turning to G110C A111G, the “polymerase ribozyme fitness (log ratio)” value is -5.74.
In the case of A111U U132A it was -2.14; in that of U112G A121U, 0.924; in that of G113A U129G, -1.7.
In the case of C115A U125G it was 0.221.
The value for A118U U130G was -0.458; that for C115U G120C C123A was 0.543.
With G117A C123G, the “polymerase ribozyme fitness (log ratio)” value is -1.9.
In the case of U112C C124U G128U it was -0.524.
On to G110U A119U, for which the “polymerase ribozyme fitness (log ratio)” value is -1.65.
The value for G117A U131G was -1.55; that for C114A A119G C124G was 0.223.
In the case of G122A C124G it was 1.86; in that of G117U U126G, -5.92.
In the case of G120U G122U it was 0.765.
Consider C115U G135U, for which the “polymerase ribozyme fitness (log ratio)” value is -1.91.
In the case of A111G U112A it was -2.9.
The value for C115A C123G was 1.01; that for G113C U125A was -3.4; that for A119U G135U was -1.1.
The value for G117A U129C was -2.05; that for G117A U129A was -3.39; that for A119G U132A was 1.24.
As to C115A A118G, the “polymerase ribozyme fitness (log ratio)” value is -0.852.
In the case of A119C C123G it was -1.25; in that of G110C G113A, -6.42.
The value for A108G G135U was -2.4; that for U109C C115A was -3.11.
The value for G117C C123U U126A was -5.9; that for U116G A121C was -0.876.
Consider U116G A121G, for which the “polymerase ribozyme fitness (log ratio)” value was -0.679.
In the case of U112C G127A it was 0.907.
Turning to U116A U133C, the “polymerase ribozyme fitness (log ratio)” value was -3.8.
In the case of C115U G128C it was -3.16; in that of G117A G127A, -4.19; in that of G117A G127C, -1.7.
In the case of C114U G127U it was -3.69; in that of U109A U112A, -4.47.
In the case of G113U C114G it was -2.89; in that of U112A C114G, -0.0146; in that of G113A C123G, -0.469.
Turning to C115G C124U, the “polymerase ribozyme fitness (log ratio)” value was -1.13.
With C114G G117A G135U, the “polymerase ribozyme fitness (log ratio)” value was -6.72.
C114A G135U: the “polymerase ribozyme fitness (log ratio)” value is -1.88.
The value for C114U G117U was -5.77.
Regarding C114U U132A, the “polymerase ribozyme fitness (log ratio)” value was -1.1.
In the case of G110A C114A it was -6.15; in that of G110A C114G, -6.64.
In the case of G110U A111G G113C it was -2.46.

Values taken from the RNAGym collection of RNA variant scans (doi:10.1073/pnas.2313332121).
